For the experiment, the target named is TSLP Receptor (TSLPR), heterodimer of the IL7 receptor alpha (IL7Rα) chain and the TSLP-specific receptor chain (TSLPR; Crlf2), on mouse DRG sensory neurons (mouse) (UniProt Q8CII9). The experiment can be described thus: cell-based or functional assay.
TSLP Receptor (TSLPR), heterodimer of the IL7 receptor alpha (IL7Rα) chain and the TSLP-specific receptor chain (TSLPR; Crlf2), on mouse DRG sensory neurons (mouse), sequence (Q8CII9 20-359, chain 1 of 2): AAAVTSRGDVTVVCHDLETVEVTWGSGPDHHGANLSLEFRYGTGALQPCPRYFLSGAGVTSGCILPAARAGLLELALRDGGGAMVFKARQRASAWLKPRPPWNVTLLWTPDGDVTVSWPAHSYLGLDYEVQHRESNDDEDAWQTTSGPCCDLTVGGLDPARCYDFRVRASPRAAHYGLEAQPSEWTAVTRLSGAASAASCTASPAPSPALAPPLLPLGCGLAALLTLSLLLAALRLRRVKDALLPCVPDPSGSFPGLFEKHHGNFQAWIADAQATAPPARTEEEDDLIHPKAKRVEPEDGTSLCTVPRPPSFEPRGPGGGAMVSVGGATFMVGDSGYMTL
TSLP Receptor (TSLPR), heterodimer of the IL7 receptor alpha (IL7Rα) chain and the TSLP-specific receptor chain (TSLPR; Crlf2), on mouse DRG sensory neurons (mouse), sequence (P16872 21-459, chain 2 of 2, further chain): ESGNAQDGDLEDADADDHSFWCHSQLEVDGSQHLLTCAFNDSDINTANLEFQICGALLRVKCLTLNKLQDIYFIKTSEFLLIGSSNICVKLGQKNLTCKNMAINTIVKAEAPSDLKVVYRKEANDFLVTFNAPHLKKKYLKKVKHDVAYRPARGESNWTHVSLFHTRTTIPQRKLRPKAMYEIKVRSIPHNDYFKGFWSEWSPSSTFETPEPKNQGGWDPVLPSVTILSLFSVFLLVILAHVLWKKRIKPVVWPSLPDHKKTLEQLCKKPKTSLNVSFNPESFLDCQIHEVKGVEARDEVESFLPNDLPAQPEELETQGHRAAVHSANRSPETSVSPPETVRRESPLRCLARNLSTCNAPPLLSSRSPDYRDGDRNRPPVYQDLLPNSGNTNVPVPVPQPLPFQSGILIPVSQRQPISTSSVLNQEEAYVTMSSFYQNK

“Thymic Stromal Lymphopoietin (TSLP) (ligand)”: the prevalence of DRG neurons with increases in intracellular Ca2+ following TSLP application (ratiometric Ca2+ imaging) stood at 4.1%.

Source of the values: patent US20150184163A1.
